Legend:
[1] = Two-week thermal / pH stress stability by HIC and peptide mapping; type: physicochemical; settings: 4° C., 25° C., 40° C. for 15 days; high pH treatment
Procedure: A two-week stability assay was performed by incubating Ab3 and Ab4 at 4° C., 25° C., and 40° C. for 15 days, after which the antibodies were analyzed by […] (HIC). Briefly, 25 micrograms of the indicated antibody were injected onto a Tosoh TSKgel Phenyl-5PW 7.5 mm ID×7.5 cm 10-micron column (Catalog #07573) on a Waters ARC HPLC/UPLC system. […] This hydrophilic pre-peak was indicative of a potential site of post-translational modification (e.g., oxidation or deamidation). Peptide mapping was subsequently performed to identify which amino acids were modified in each antibody upon exposure to stress (high pH, low pH, and oxidative stress). The peptide mapping analysis identified a potential site of deamidation at an asparagine in CDR-L1 (N30 position) in response to high pH conditions (e.g., pH 8 or greater).
Accordingly, variants of Ab3 and Ab4 were generated in which the asparagine in CDR-L1 (e.g., at position 30B) was substituted with a serine. The resulting antibodies were named Ab7 and Ab5 respectively.

[2] = system: cynomolgus CD45 ectodomain; experiment: Biolayer interferometry (BLI, Octet) binding of immobilized IgG to purified CD45 ectodomain; settings: Table 2, Cynomolgus CD45
cynomolgus CD45 ectodomain, sequence (as listed by the source): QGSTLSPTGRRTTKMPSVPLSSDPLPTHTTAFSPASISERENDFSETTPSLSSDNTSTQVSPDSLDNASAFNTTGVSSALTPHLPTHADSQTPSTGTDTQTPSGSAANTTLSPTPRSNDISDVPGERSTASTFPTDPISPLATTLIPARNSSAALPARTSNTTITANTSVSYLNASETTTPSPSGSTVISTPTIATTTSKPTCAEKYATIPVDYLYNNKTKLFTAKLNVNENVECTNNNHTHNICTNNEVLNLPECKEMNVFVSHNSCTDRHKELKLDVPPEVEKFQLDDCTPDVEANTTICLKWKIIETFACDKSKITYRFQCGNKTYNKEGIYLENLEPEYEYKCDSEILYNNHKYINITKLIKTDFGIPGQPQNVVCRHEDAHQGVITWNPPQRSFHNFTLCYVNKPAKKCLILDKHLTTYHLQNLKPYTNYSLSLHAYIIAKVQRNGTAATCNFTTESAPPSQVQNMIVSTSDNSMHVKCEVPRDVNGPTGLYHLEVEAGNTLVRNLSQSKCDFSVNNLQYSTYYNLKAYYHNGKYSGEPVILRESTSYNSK
Procedure: (§1) Antibody binding studies were performed at 25° C. in 1×PBS supplemented with 0.1% w/v bovine serum albumin with a Pall ForteBio Octet Red96 using biolayer interferometry (BLI).
(§2) The apparent monovalent affinity (KD), apparent association rate (KON), and apparent dissociation rate (KOFF) were determined by local full fitting with a 1:1 binding model as calculated by ForteBio data analysis software version 10 of each IgG to purified human, cynomolgus or rhesus CD45 ectodomain. […] Binding was confirmed using
Briefly, antibody binding studies were performed at 25° C. in 1×PBS supplemented with 0.1% w/v bovine serum albumin with a PALL FORTEBIO OCTET RED96 using biolayer interferometry (BLI). […]
(§3) The apparent monovalent affinity (KD), apparent association rate (KON), and apparent dissociation rate (KDIS or KOFF) were determined by local full fitting with a 1:1 binding model as calculated by FORTEBIO data analysis software version 10. […] Each of the selected humanized antibodies AbA, AbB, and AbC was able to cross react with human and cynomolgus CD45.

human CD45 ectodomain = target: T1, human CD45 ectodomain (Homo sapiens, UniProt P08575); experiment: as above; settings: Table 2, Human CD45
T1 construct: purified human, rhesus or cynomolgus CD45 ectodomain
T1 sequence (P08575 26-577): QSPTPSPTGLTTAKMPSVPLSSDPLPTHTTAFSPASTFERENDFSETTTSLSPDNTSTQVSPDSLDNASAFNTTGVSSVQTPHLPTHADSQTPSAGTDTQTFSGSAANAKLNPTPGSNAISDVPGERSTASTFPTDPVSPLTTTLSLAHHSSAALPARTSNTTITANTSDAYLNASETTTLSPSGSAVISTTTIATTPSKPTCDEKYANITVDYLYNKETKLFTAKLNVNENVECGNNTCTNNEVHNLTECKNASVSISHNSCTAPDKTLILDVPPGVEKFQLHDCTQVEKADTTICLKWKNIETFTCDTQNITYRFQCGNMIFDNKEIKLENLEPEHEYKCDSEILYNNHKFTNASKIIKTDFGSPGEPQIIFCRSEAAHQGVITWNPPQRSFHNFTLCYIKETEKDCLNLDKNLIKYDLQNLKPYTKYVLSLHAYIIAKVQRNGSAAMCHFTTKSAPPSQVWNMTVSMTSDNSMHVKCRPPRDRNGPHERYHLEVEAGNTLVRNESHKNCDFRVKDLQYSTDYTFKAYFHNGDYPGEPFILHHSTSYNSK
Procedure: as §1, §2
Briefly, antibody binding studies were performed at 25° C. in 1×PBS supplemented with 0.1% w/v bovine serum albumin with a PALL FORTEBIO OCTET RED96 using biolayer interferometry (BLI). Each purified antibody was immobilized onto anti-human Fc biosensors (AHQ; PALL FORTEBIO 18-5001) and incubated with 100 nM of purified human or 300 nM of cynomolgus CD45 ectodomain.
as §3

rhesus CD45 ectodomain = target: T2, rhesus CD45 ectodomain (Macaca mulatta, UniProt A0A1D5R142); experiment: as above; settings: Table 2, Rhesus CD45
T2 construct: purified human, rhesus or cynomolgus CD45 ectodomain
T2 sequence (A0A1D5R142 26-581): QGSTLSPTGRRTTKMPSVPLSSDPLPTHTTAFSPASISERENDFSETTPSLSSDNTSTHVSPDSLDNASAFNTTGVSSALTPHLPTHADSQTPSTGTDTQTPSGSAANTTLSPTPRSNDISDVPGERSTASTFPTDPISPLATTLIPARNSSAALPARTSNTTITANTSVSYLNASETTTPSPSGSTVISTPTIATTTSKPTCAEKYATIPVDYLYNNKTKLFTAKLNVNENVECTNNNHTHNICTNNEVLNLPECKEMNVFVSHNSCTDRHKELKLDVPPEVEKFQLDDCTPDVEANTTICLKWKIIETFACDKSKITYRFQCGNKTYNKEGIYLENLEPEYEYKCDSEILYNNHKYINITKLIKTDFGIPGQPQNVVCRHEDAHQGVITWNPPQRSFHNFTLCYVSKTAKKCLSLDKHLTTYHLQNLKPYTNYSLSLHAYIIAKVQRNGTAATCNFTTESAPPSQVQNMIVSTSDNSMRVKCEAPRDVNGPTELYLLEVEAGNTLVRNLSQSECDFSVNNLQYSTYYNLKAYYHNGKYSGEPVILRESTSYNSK
Procedure: as §1
as §2, with “using […]” for “using”

B1: Ab4: affinity matured human anti-CD45 IgG derived from Ab1; VH SEQ ID NO:31, VL SEQ ID NO:35 (antibody, V domains shown)
VH: EVQLVESGGGLVQPGGSLRLSCAASGFTFEAYSMNWVRQAPGKGLEWVSYISLSGATIHYADSVKGRFTISRDNAKNSLYLQMNSLRAEDTAVYYCARGGQYYYTSSDYGEVAFDIWGQGTMVTVSS
VL: DIVMTQSPLSLPVTPGEPASISCRSSQSLVSNGYNYLDWYLQKPGQSPQLLIYFGSSRASGVPDRFSGSGSGTDFTLKISRVEAEDVGVYYCMQRRRTPWSFGGGTKVEIK
[1]
  HIC hydrophilic pre-peak (deamidated species): hydrophilic pre-peak that increased as a function of thermal stress
[2]
  Kdis: 7.89e-05 s⁻¹
  Kon: 110000 M⁻¹ s⁻¹
[2]; 50 nM antigen (Ab1: 300 nM)
  Kd: 0.721 nM
Human CD45 ectodomain
  Kdis: 3.28e-06 s⁻¹
  Kon: 236000 M⁻¹ s⁻¹
Rhesus CD45 ectodomain
  Kdis: 0.000102 s⁻¹
  Kon: 118000 M⁻¹ s⁻¹
Rhesus CD45 ectodomain; 50 nM antigen (Ab1: 300 nM)
  Kd: 0.867 nM

Source: patent US12209135B2, “Anti-CD45 antibodies and conjugates thereof” (priority 2019, dated 2025)
